Here are results for four molecules from US20220226495A1.

Where two headings read alike, the source gives them in different places.

In assay [1] the target is T1, MPER binding peptide (Acetyl-[…]-Ttds-Lys-(Biotin)-NH2) (HIV-1).
Assay [2] deals with T1, MPER binding peptide …. The source holds these as a separate data set.
The target in assay [3] is HIV-1 Env of 20 pseudotyped viruses representing 10 different HIV-1 clades. The experiment in a line: cell-based or functional assay.
Assay [4] has the same target. The experiment in a line: cell-based or functional assay. The source holds these as a separate data set.

B1: Binding Protein 2 (protein)
heavy 1: RAHLVQSGTAMKKPGASVRVSCQTSGYTFTAHILFWFRQAPGRGLEWVGWIKPQYGAVNFGGGFRDRVTLTRDVYREIAYMDIRGLKPDDTAVYYCARDRSYGDSSWALDAWGQGTTVVVSAASTKGPSVFPLAPSSKSTSGGTAALGCLVKDYFPEPVTVSWNSGALTSGVHTFPAVLQSSGLYSLSSVVTVPSSSLGTQTYICNVNHKPSNTKVDKKVEPKSCDKTHTCPPCPAPELLGGPSVFLFPPKPKDTLMISRTPEVTCVVVDVSHEDPEVKFNWYVDGVEVHNAKTKPREEQYNSTYRVVSVLTVLHQDWLNGKEYKCKVSNKALPAPIEKTISKAKGQPREPQVCTLPPSRDELTKNQVSLSCAVKGFYPSDIAVEWESNGQPENNYKTTPPVLDSDGSFFLVSKLTVDKSRWQQGNVFSCSVLHEALHSHYTQKSLSLSPG
light 1: YIHVTQSPSSLSVSIGDRVTINCQTSQGVGSDLHWYQHKPGRAPKLLIHHTSSVEDGVPSRFSGSGFHTSFNLTISDLQADDIATYYCQVLQFFGRGSRLHIKRTVAAPSVFIFPPSDEQLKSGTASVVCLLNNFYPREAKVQWKVDNALQSGNSQESVTEQDSKDSTYSLSSTLTLSKADYEKHKVYACEVTHQGLSSPVTKSFNRGEC
heavy 2: EVRLVESGGGLVKPGGSLRLSCSASGFDFDNAWMTWVRQPPGKGLEWVGRITGPGEGWSVDYAESVKGRFTISRDNTKNTLYLEMNNVRTEDTGYYFCARTGKYYDFWSGYPPGEEYFQDWGQGTLVIVSSDKTHTQVHLTQSGPEVRKPGTSVKVSCKAPGNTLKTYDLHWVRSVPGQGLQWMGWISHEGDKKVIVERFKAKVTIDWDRSTNTAYLQLSGLTSGDTAVYYCAKGSKHRLRDYALYDDDGALNWAVDVDYLSNLEFWGQGTAVTVSSDKTHTASTKGPSVFPLAPSSKSTSGGTAALGCLVKDYFPEPVTVSWNSGALTSGVHTFPAVLQSSGLYSLSSVVTVPSSSLGTQTYICNVNHKPSNTKVDKKVEPKSCDKTHTCPPCPAPELLGGPSVFLFPPKPKDTLMISRTPEVTCVVVDVSHEDPEVKFNWYVDGVEVHNAKTKPREEQYNSTYRVVSVLTVLHQDWLNGKEYKCKVSNKALPAPIEKTISKAKGQPREPQVYTLPPCRDELTKNQVSLWCLVKGFYPSDIAVEWESNGQPENNYKTTPPVLDSDGSFFLYSKLTVDKSRWQQGNVFSCSVLHEALHSHYTQKSLSLSPG
light 2: DFVLTQSPHSLSVTPGESASISCKSSHSLIHGDRNNYLAWYVQKPGRSPQLLIYLASSRASGVPDRFSGSGSDKDFTLKISRVETEDVGTYYCMQGRESPWTFGQGTKVDIKDKTHTASELTQDPAVSVALKQTVTITCRGDSLRSHYASWYQKKPGQAPVLLFYGKNNRPSGIPDRFSGSASGNRASLTITGAQAEDEADYYCSSRDKSGSRLSVFGGGTKLTVLDKTHTRTVAAPSVFIFPPSDEQLKSGTASVVCLLNNFYPREAKVQWKVDNALQSGNSQESVTEQDSKDSTYSLSSTLTLSKADYEKHKVYACEVTHQGLSSPVTKSFNRGEC
A word on the Kd: it is the equilibrium constant for the complex coming apart. Read a low Kd as higher affinity. The koff is the first-order rate constant of dissociation. Low values mean a long-lived complex, high ones a short-lived complex. A word on the kon: it is the second-order rate constant of association. Low values mean slow association, high ones fast association. In assay [1], B1 showed a Ka of 1.65e+08 M⁻¹, a Kd of 6.05 nM, a koff of 0.000697 s⁻¹ and a kon of 115000 M⁻¹ s⁻¹. This molecule came in with a fold higher affinity than the MPER antibody in assay [2] of 3.1 fold. In assay [3], this molecule showed a % VS Neutralized IC80 <1 µg/mL of 65%, a % VS Neutralized IC80 <50 µg/mL of 90%, a Geometric Mean of 0.222 µg/mL and a Median IC80 of 0.375 µg/mL. Also, in assay [3], the Total VS Neutralized IC80 <1 µg/mL (viruses of 20) came to 13 and the Total VS Neutralized IC80 <50 µg/mL (viruses of 20) came out at 18.

B2: Binding Protein 3 (protein)
heavy 1: RAHLVQSGTAMKKPGASVRVSCQTSGYTFTAHILFWFRQAPGRGLEWVGWIKPQYGAVNFGGGFRDRVTLTRDVYREIAYMDIRGLKPDDTAVYYCARDRSYGDSSWALDAWGQGTTVVVSAASTKGPSVFPLAPSSKSTSGGTAALGCLVKDYFPEPVTVSWNSGALTSGVHTFPAVLQSSGLYSLSSVVTVPSSSLGTQTYICNVNHKPSNTKVDKKVEPKSCDKTHTCPPCPAPELLGGPSVFLFPPKPKDTLMISRTPEVTCVVVDVSHEDPEVKFNWYVDGVEVHNAKTKPREEQYNSTYRVVSVLTVLHQDWLNGKEYKCKVSNKALPAPIEKTISKAKGQPREPQVCTLPPSRDELTKNQVSLSCAVKGFYPSDIAVEWESNGQPENNYKTTPPVLDSDGSFFLVSKLTVDKSRWQQGNVFSCSVLHEALHSHYTQKSLSLSPG
light 1: YIHVTQSPSSLSVSIGDRVTINCQTSQGVGSDLHWYQHKPGRAPKLLIHHTSSVEDGVPSRFSGSGFHTSFNLTISDLQADDIATYYCQVLQFFGRGSRLHIKRTVAAPSVFIFPPSDEQLKSGTASVVCLLNNFYPREAKVQWKVDNALQSGNSQESVTEQDSKDSTYSLSSTLTLSKADYEKHKVYACEVTHQGLSSPVTKSFNRGEC
heavy 2: QVHLTQSGPEVRKPGTSVKVSCKAPGNTLKTYDLHWVRSVPGQGLQWMGWISHEGDKKVIVERFKAKVTIDWDRSTNTAYLQLSGLTSGDTAVYYCAKGSKHRLRDYALYDDDGALNWAVDVDYLSNLEFWGQGTAVTVSSDKTHTEVRLVESGGGLVKPGGSLRLSCSASGFDFDNAWMTWVRQPPGKGLEWVGRITGPGEGWSVDYAESVKGRFTISRDNTKNTLYLEMNNVRTEDTGYYFCARTGKYYDFWSGYPPGEEYFQDWGQGTLVIVSSDKTHTASTKGPSVFPLAPSSKSTSGGTAALGCLVKDYFPEPVTVSWNSGALTSGVHTFPAVLQSSGLYSLSSVVTVPSSSLGTQTYICNVNHKPSNTKVDKKVEPKSCDKTHTCPPCPAPELLGGPSVFLFPPKPKDTLMISRTPEVTCVVVDVSHEDPEVKFNWYVDGVEVHNAKTKPREEQYNSTYRVVSVLTVLHQDWLNGKEYKCKVSNKALPAPIEKTISKAKGQPREPQVYTLPPCRDELTKNQVSLWCLVKGFYPSDIAVEWESNGQPENNYKTTPPVLDSDGSFFLYSKLTVDKSRWQQGNVFSCSVLHEALHSHYTQKSLSLSPG
light 2: ASELTQDPAVSVALKQTVTITCRGDSLRSHYASWYQKKPGQAPVLLFYGKNNRPSGIPDRFSGSASGNRASLTITGAQAEDEADYYCSSRDKSGSRLSVFGGGTKLTVLDKTHTDFVLTQSPHSLSVTPGESASISCKSSHSLIHGDRNNYLAWYVQKPGRSPQLLIYLASSRASGVPDRFSGSGSDKDFTLKISRVETEDVGTYYCMQGRESPWTFGQGTKVDIKDKTHTRTVAAPSVFIFPPSDEQLKSGTASVVCLLNNFYPREAKVQWKVDNALQSGNSQESVTEQDSKDSTYSLSSTLTLSKADYEKHKVYACEVTHQGLSSPVTKSFNRGEC
In assay [1], B2 returned a Ka of 6e+07 M⁻¹, a Kd of 16.7 nM, an off-rate constant (koff) of 0.000779 s⁻¹ and a kon of 46700 M⁻¹ s⁻¹. In addition, in assay [3], the % VS Neutralized IC80 <1 µg/mL was found to be 60%, the % VS Neutralized IC80 <50 µg/mL came to 90%, the Geometric Mean amounted to 0.287 µg/mL and the Median IC80 was found to be 0.469 µg/mL. Moreover, in assay [3], the Total VS Neutralized IC80 <1 µg/mL (viruses of 20) stood at 12 and the Total VS Neutralized IC80 <50 µg/mL (viruses of 20) came to 18.

B3: V1/V2 directed Ab “a” (antibody, V domains shown)
VH: QVHLTQSGPEVRKPGTSVKVSCKAPGNTLKTYDLHWVRSVPGQGLQWMGWISHEGDKKVIVERFKAKVTIDWDRSTNTAYLQLSGLTSGDTAVYYCAKGSKHRLRDYALYDDDGALNWAVDVDYLSNLEFWGQGTAVTVSS
VL: DFVLTQSPHSLSVTPGESASISCKSSHSLIHGDRNNYLAWYVQKPGRSPQLLIYLASSRASGVPDRFSGSGSDKDFTLKISRVETEDVGTYYCMQGRESPWTFGQGTKVDIK
In assay [3], B3 gave a % VS Neutralized IC80 <1 µg/mL of 45%, a % VS Neutralized IC80 <50 µg/mL of 55%, a Geometric Mean of 0.094 µg/mL and a Median IC80 of 0.06 µg/mL. Moreover, in assay [3], the Total VS Neutralized IC80 <1 µg/mL (viruses of 20) came out at 9 and the Total VS Neutralized IC80 <50 µg/mL (viruses of 20) was determined as 11.

B4: V1/V2 directed Ab “b” (antibody, V domains shown)
VH: QVQLVESGGGVVQPGTSLRLSCAASQFRFDGYGMHWVRQAPGKGLEWVASISHDGIKKYHAEKVWGRFTISRDNSKNTLYLQMNSLRPEDTALYYCAKDLREDECEEWWSDYYDFGKQLPCAKSRGGLVGIADNWGQGTMVTVSS
VL: QSVLTQPPSVSAAPGQKVTISCSGNTSNIGNNFVSWYQQRPGRAPQLLIYETDKRPSGIPDRFSASKSGTSGTLAITGLQTGDEADYYCATWAASLSSARVFGTGTKVIVL
In assay [4], B4 returned a % VS Neutralized IC80 <1 µg/mL of 45%, a % VS Neutralized IC80 <50 µg/mL of 45%, a Geometric Mean of 0.039 µg/mL and a Median IC80 of 0.051 µg/mL. In assay [4], this molecule registered a Total VS Neutralized IC80 <1 µg/mL (viruses of 20) of 9 and a Total VS Neutralized IC80 <50 µg/mL (viruses of 20) of 9.
